Results as given in patent US20260274986A1, “USE OF CHIMERA IN TARGETED PROTEIN DEGRADATION TECHNOLOGY” (SUN YAT-SEN UNIVERSITY, priority 2023, published 2026).

Experiments:
EGFR = target: T1, EGFR (Homo sapiens, UniProt P00533); experiment: Chimera-induced degradation of EGFR, Western blot; format: cell-based; settings: 48 hours
T1 construct: two EGFR-high-expressing cell lines-A431, and A549-were selected for the experiment; endogenous in cells; host or cells: A431, A549
Procedure: In this Example, two EGFR-high-expressing cell lines-A431, and A549-were selected for the experiment. The cells were plated one day before the administration of chimeras. […] Subsequently, the cells were lysed using a lysis buffer, total proteins were extracted, and protein concentration was quantified using a BCA protein assay kit (Thermo Fisher). Proteins were separated by 10% SDS-PAGE and transferred onto polyvinylidene fluoride (PVDF) membranes via electroblotting. The membranes were blocked with 5% skim milk at room temperature for 1 hour. After removing the milk, the membranes were incubated with a primary antibody overnight at 4° C. on a shaker. The next day, the membranes were quickly immersed in TBST and washed three times, followed by incubation with a secondary antibody at room temperature for 1 hour. Finally, the proteins were detected and recorded using a chemiluminescence reagent and a Tanon chemiluminescence imaging system, and quantitative analysis was performed on the proteins using ImageJ. All primary antibodies used in this Example were an anti-EGFR antibody.

CDK5 = target: T2, CDK5 (Homo sapiens, UniProt Q00535); experiment: Chimera-induced degradation of intracellular target CDK5, Western blot; format: cell-based; settings: T24 cells; 48 hours; compared to PEP2 and P1
T2 construct: a CDK5-high-expressing cell line—T24 human bladder cancer cells—was selected for the experiment; endogenous in cells; host or cells: T24
T2 sequence (Q00535 whole entry): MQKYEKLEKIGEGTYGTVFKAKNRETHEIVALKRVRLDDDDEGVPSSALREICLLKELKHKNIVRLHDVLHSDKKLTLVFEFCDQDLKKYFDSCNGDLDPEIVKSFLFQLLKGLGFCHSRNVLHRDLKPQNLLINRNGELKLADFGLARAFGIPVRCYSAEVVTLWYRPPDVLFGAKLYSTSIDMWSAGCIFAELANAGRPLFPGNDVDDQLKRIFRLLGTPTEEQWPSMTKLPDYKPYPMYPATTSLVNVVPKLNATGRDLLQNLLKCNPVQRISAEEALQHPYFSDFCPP
Procedure: In this Example, a CDK5-high-expressing cell line—T24 human bladder cancer cells—was selected for the experiment. The cells were plated one day before the administration of chimeras. Each of PEP2, P1 and PEP-C4-P1 was diluted in complete medium and incubated with the cells for 48 hours. Subsequently, the cells were lysed using a lysis buffer, total proteins were extracted, and protein concentration was quantified using a BCA protein assay kit (Thermo Fisher). Proteins were separated by 10% SDS-PAGE and transferred onto polyvinylidene fluoride (PVDF) membranes via electroblotting. The membranes carrying the proteins were blocked with 5% skim milk at room temperature for 1 hour. After removing the milk, the membranes were incubated with a primary antibody overnight at 4° C. on a shaker. The next day, the membranes were quickly immersed in TBST and washed three times, followed by incubation with a secondary antibody at room temperature for 1 hour. Finally, the proteins were detected and recorded using a chemiluminescence reagent and a Tanon chemiluminescence imaging system, and quantitative analysis was performed on the proteins using ImageJ. All primary antibodies used in this Example were an anti-CDK5 antibody.

Row | degradation of CDK5 (Western blot, FIG. 15) (CDK5) | Substance | degradation of EGFR (Western blot, FIG. 6C) (EGFR; A431 cells) | degradation of EGFR (Western blot, FIG. 6C) (EGFR; A549 cells)
1 |  | PEP1-P1: EGFR-binding polypeptide PEP1 (LARLLT) fused at C-terminus to P1, SEQ ID NO: 134 (LARLLTSFHDDSDEDLLHI) | obvious degradation effect on the membrane receptor EGFR | obvious degradation effect on the membrane receptor EGFR
2 | obvious degradation effect on CDK5 | PEP2-C4-P1: CDK5-binding polypeptide PEP2 (RRPPRSPDHKRYFRDKE) fused at C-terminus to C4-P1, SEQ ID NO: 136 (RRPPRSPDHKRYFRDKEYGRKKRRQRRRSFHDDSDEDLLHI) |  | 
3 |  | PEP1-C3-P1: EGFR-binding polypeptide PEP1 (LARLLT) fused at C-terminus to C3-P1, SEQ ID NO: 135 (LARLLTRRRRKSFHDDSDEDLLHI) | obvious degradation effect on the membrane receptor EGFR | obvious degradation effect on the membrane receptor EGFR
